Reference: the supplement of paper PMC10126150
± gives the standard deviation of the averaged measurements.

System: ATP
Test: switch fluorescence ratio, 500 uM ATP over buffer (Cy3 cluster intensity, sum of 5 cycles each) (fold (ratio)); higher = stronger signal-on switching upon ATP binding; sequences stand for … in TCGTCGGCAGCGTCAGATGTGTATAAGAGACAGTTTTTTTTTTTTTTTTTTTTTTTTT…TC
Settings: aptamer strand: ATP DNA aptamer (quencher-CACCTGGGGGAGTATTGCGGAGGAAGG + anchor), 100 nM annealed; ATP concentration: 500 uM
Procedure, shortened: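 Imaging in selection buffer was followed by imaging after 15 min with 500 uM ATP at 22 °C, for Cy3-labelled switching-strand clusters annealed to 100 nM quencher-labelled ATP aptamer on a modified Illumina MiSeq flow-cell. Five of these buffer/ATP cycles ran, separated by NaOH stripping and re-annealing. The fluorescence ratio per cluster is summed target-cycle over summed buffer-cycle Cy3 intensity, averaged per switch-domain sequence; clusters outside 100-1000 RFU were removed.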
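Note: ATP exposure 15 min at 22 °C before imaging.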

Sequence | switch fluorescence ratio
TACTCGCTGG | 1.07 ± 0.036
GAAGGCCTTG | 1.01 ± 0.025
GGGGTAATAG | 1.12 ± 0.14
GGGTTATATT | 0.988 ± 0.024
ATCAGAGGGG | 1.03 ± 0.019
ATAAAAATGG | 1.004 ± 0.0075
GGTAGACGGT | 1.02 ± 0.049
ACTGTGAATT | 1.02 ± 0.011
TTTATCGGG | 1.01 ± 0.044
TAACGAGATT | 1.02 ± 0.026
TTGGGGTCGA | 0.951 ± 0.04
TTTTCAAAGC | 1.67 ± 0.84
ATAAGTTCCG | 0.996 ± 0.028
GGTTAGGAGT | 0.99 ± 0.0081
GGCTTACTAT | 1.01 ± 0.02
CTTCGGGGGA | 0.992 ± 0.01
TTCTACGGGC | 1.11 ± 0.025
TTTCATGTCT | 0.992 ± 0.019
TTTTGCCTTA | 1.007 ± 0.0063
TTTTAAGGTG | 1.39 ± 0.055
GATAGGGCAA | 1.08 ± 0.075
CGTATCCACT | 0.99569 ± 0.00085
TTCGATAGCA | 1.06 ± 0.058

Sequence | switch fluorescence ratio
GGGGAACAGA | 1.02 ± 0.026
TGGGTTACCT | 1.05 ± 0.01
TAAGGGGTCC | 0.979 ± 0.013
CGGGTCTATT | 0.9649 ± 0.001
TTGGCACAGT | 1.008 ± 0.0048
AATTAGAGTA | 0.994 ± 0.068
GACGTTTGGG | 0.982 ± 0.022
TCGTGAGGTG | 1.02 ± 0.068
ATCTGATTGA | 0.97124 ± 0.00072
TCAAACGCGT | 1.01 ± 0.037
ATGCTAGTTG | 0.98924 ± 0.0007
AGGTAGTCTG | 0.9756 ± 0.003
GGGGTGGGAG | 1.01 ± 0.041
TGGTGGATGG | 1.22 ± 0.29
GATGGGTCGT | 1 ± 0.033
TTAGAGTGGT | 1.01 ± 0.033
CATAGGCATT | 1.03 ± 0.016
TAGGGGGGT | 0.9765 ± 0.0032
TACGTGGTGG | 1.05 ± 0.024
ATTTTGGAGA | 1.02 ± 0.026
ATGTGTGTGG | 1.03 ± 0.017
ACTAAATCGG | 1.02 ± 0.039
ACAGGCTCCG | 1.05 ± 0.038

Sequence | switch fluorescence ratio
GTGACGAGGG | 0.981 ± 0.013
TATTAGCTAT | 0.998 ± 0.037
CGCGTGGGGG | 1.03 ± 0.081
TTTCCCGGTG | 2.13 ± 0.039
GTCGTATTAG | 0.995 ± 0.022
TGGGAGGGCT | 1.05 ± 0.093
GCGAGAGGGT | 0.974 ± 0.025
CGCGTGGCTG | 1 ± 0.019
TGGCTTGCCG | 0.998 ± 0.027
AAGGTCTATT | 0.998 ± 0.06
TGGGGGTACT | 1.01 ± 0.011
GAAGATGAAA | 0.984 ± 0.017
CAGGGGCTGT | 0.997 ± 0.038
TATAAGGGGG | 0.982 ± 0.021
AACTCGGGGT | 1.02 ± 0.05
CGTATTGGGG | 1.04 ± 0.017
TGGTTAATGC | 1.48 ± 0.1
GATTGCAGCG | 1.002 ± 0.0016
GCCCCGGGTT | 1.36 ± 0.37
AGGTTGAGAG | 0.9515 ± 0.0075
TGTATTTAAG | 0.97 ± 0.035
ACATTTTTAG | 1.01 ± 0.013
GTGGGATTGA | 0.9898 ± 0.0043

Sequence | switch fluorescence ratio
AATGCTTGTC | 0.952 ± 0.048
CGGGTTCAGT | 0.974 ± 0.014
GCGTTAAGTT | 0.984 ± 0.035
TAAAATGTTC | 0.988 ± 0.048
TTTAGTTTGC | 0.992 ± 0.024
GTTGTGAGGA | 0.984 ± 0.036
TACATAGGCA | 1.03 ± 0.035
TTTGTGAGTT | 1.017 ± 0.0042
GGGAGGGACC | 1.01 ± 0.011
GGACTTGCGA | 1.043 ± 0.0042
TAGGAGCGTG | 1.02 ± 0.044
CGGGGTGAAA | 0.983 ± 0.029
GGGGTCGGG | 0.977 ± 0.044
CGCATTGTGA | 1.02 ± 0.063
TCTTGGGGCA | 1.01 ± 0.019
TCTAGTTAAA | 0.986 ± 0.0074
TGACCGTTTT | 0.999 ± 0.025
CAGGAAAATG | 0.994 ± 0.041
ATTGATCTCC | 1.03 ± 0.072
ATTAACCAGG | 1.27 ± 0.065
TGTTGGTTTG | 1.08 ± 0.14
TAGTTATTTT | 1.01 ± 0.021
CAGCTTGGGT | 0.999 ± 0.04

Sequence | switch fluorescence ratio
TGCGCAAAAG | 1.01 ± 0.012
CTATGTGTCT | 0.97 ± 0.043
GAAGGCCATG | 1.016 ± 0.0075
ATTTTTTGTA | 0.984 ± 0.026
AGGATCTATG | 1.03 ± 0.021
TATGGATTGC | 0.988 ± 0.032
TCTGGTTGT | 0.992 ± 0.028
GCATTTATGG | 0.949 ± 0.022
TTTTGTGTTA | 0.997 ± 0.033
TCGGGAGGTT | 1.01 ± 0.031
ACAAGGCAGA | 1.04 ± 0.013
CGACTTACAT | 1.24 ± 0.057
GGAGGAGAGC | 0.994 ± 0.015
CGGTCTTCAT | 0.9903 ± 0.00043
GTTGTACGAG | 0.9824 ± 0.0058
CGTCAATTGA | 1.01 ± 0.036
CGAATGTTCG | 0.998 ± 0.035
AGATTAGGGT | 1.01 ± 0.017
AAATATTGGT | 1.01 ± 0.03
GCGTTCCTTA | 0.971 ± 0.024
GGGGTAGAGA | 0.99 ± 0.015
GCTGGGGGCC | 0.981 ± 0.028
ACTAGTCAAA | 1.02 ± 0.012

Sequence | switch fluorescence ratio
ACCTGGCACA | 1.09 ± 0.012
GAGTGGAGTG | 1.02 ± 0.079
TCTCATTACG | 1.012 ± 0.0094
GCGCTTGGGG | 0.982 ± 0.011
CGTTGGTGAG | 0.9373 ± 0.0065
GGAGTGAGCG | 0.995 ± 0.036
CATTTGGGCT | 1.03 ± 0.039
ATGAGGTTGG | 0.973 ± 0.055
CCTGTTTGTA | 1.01 ± 0.066
GATTGGCAGC | 1.015 ± 0.0035
TGGTTATGTT | 1.02 ± 0.023
TATTTGGTTT | 1 ± 0.017
TCGCGGCGCG | 0.972 ± 0.011
GATGGTTGTG | 0.95 ± 0.037
GACAGAGGTG | 1.03 ± 0.031
CGGAAGTGTG | 0.981 ± 0.039
ATCGATTTTT | 1 ± 0.032
TGGTTAGAAT | 0.986 ± 0.024
GAAAAGTTTT | 0.969 ± 0.018
ATAATAGAGT | 1.02 ± 0.024
ATGAGAATTA | 1.006 ± 0.0023
AAATTTTGGC | 1.1 ± 0.042
TACGTGCATT | 1.0476 ± 0.00035

Sequence | switch fluorescence ratio
AAAATTGCGT | 1.16 ± 0.2
CTGTTTGTTG | 0.9707 ± 0.0013
AGGAGGTGCT | 0.965 ± 0.067
GGGGGTTCAA | 0.983 ± 0.025
CAAAAAATAC | 2.23 ± 1.7
CGTCTAGAGA | 1.02 ± 0.073
GAGCGAGGGA | 1.14 ± 0.052
ATGTGGGTAT | 1.028 ± 0.0068
AACAGGGGGA | 1.09 ± 0.14
CGTTGGGAGC | 1 ± 0.019
AAGGGCTAGA | 1 ± 0.016
GAAGGACGGG | 1 ± 0.025
AATTTTATAC | 1.02 ± 0.016
GTTTTTTTAG | 1 ± 0.033
TTATGTAATC | 1.19 ± 0.25
TTCAGTGTTA | 1.017 ± 0.0058
TTACGGATGG | 1.03 ± 0.065
ACCGTGCTTA | 1.01 ± 0.032
ATGCGGTTTT | 0.986 ± 0.03
